“Also recorded” adds a separate entry of the source. Where two headings read alike, the source gives them in different places.
Assays:
rat PDGFRB receptor = target: T1, rat PDGFRB receptor (Rattus norvegicus, UniProt Q05030); experiment: Affinity (KD in nM) | SCC-rPDGFRβ cells
T1 construct: GFP; expressed in transfected cells; host or cells: SCC VII cells
Description: (§1) Table printed on a drawing sheet, FIG. 6
Head of the field: Affinity (KD in nM) | SCC-rPDGFRβ cells
(§2) The patent's description of the figure: FIG. 6. Amino acid sequence of rat PDGFRB VHHs (CDRs underlined). Affinities are measured on rat PDGFRB ectodomain (ECD) and squamous cell carcinoma cells transfected with rat PDGFRB receptor (SCC-rPDGFRB). Data of the competition assays is included to categorize the VHHs in different epitope groups.
(§3) First copying reader's note: Each sequence is printed over two lines and joined here by a blank; the underlining that marks the CDRs is not reproduced.
Where the first naming reader finds the target: description_of_the_figure: squamous cell carcinoma cells transfected with rat PDGFRB receptor (SCC-rPDGFRB)

PDGFRB ECD = target: T2, PDGFRB ECD (Homo sapiens, UniProt P09619); experiment: Competition ELISA with SP02P and SP26P on PDGFRB ECD; assay type: binding; settings: versus SPO2P
T2 construct: assay with SP02P and SP26P on PDGFRB ECD
Description: Competition ELISAs were carried out to determine whether the hPDGFRB specific binders (FIG. 5) and rPDGFRB specific binders (FIG. 6) recognize distinct epitopes on hPDGFRB or rPDGFRB, respectively. The hPDGFRB binding VHHs SPO2P, SP05P, SP12P and SP14P and the rPDGFRB binder SP26P were conjugated to IRDye800CW (VHH-IRDye800CW, conjugation method as described in example 9.2) and each conjugated VHH was mixed with unconjugated competitor in trifold serial dilutions and incubated on immobilized […]. Two VHHs share (part of) the same epitope when the fluorescence signal of the VHH-IRDye800CW decreases upon increasing concentration of unconjugated VHH. Furthermore, using a similar method as described in section 5.1, binding epitope competition between the hPDGFRB binding VHH SPO2P and rPDGFRB binding VHH

[1] = target: rat PDGFRB ectodomain (ECD); experiment: Affinity (KD in nM) | PDGFRβ ECD
Description: as §1
Head of the field: Affinity (KD in nM) | PDGFRβ ECD
as §2, §3
Where the first naming reader finds the target: description_of_the_figure: Affinities are measured on rat PDGFRB ectodomain (ECD) and squamous cell carcinoma cells transfected with rat PDGFRB receptor (SCC-rPDGFRB).

[2] = test system: BDL rats (portal hypertension); experiment: Portal pressure and mean arterial pressure in BDL and SHAM rats after i.v. dosing; assay type: in vivo, rat; settings: 5 mg/kg i.v.
Excerpt: To evaluate in vivo functionality, 13F11-13E8-ABD was conjugated to a Y27632-maleimide modified functional moiety (1e) (the test conjugate) as outlined in example 9.2. To provide a comparator, a similar amount of 13F11-13E8-ABD was conjugated to N-ethylmaleimide in a parallel and similar preparation (the mock conjugate).
To establish animals displaying portal hypertension (Klein et al, Fibrosis: Methods and Protocols. Methods in Molecular Biology. 2017 (1627): 91-122.), Sprague-Dawley rats were subjected to bile duct ligation (BDL) through median laparotomy under ketamine/xylazine-induced anaesthesia i.p. (BDL rats). To provide healthy controls, a second cohort of rats was subjected to the same surgical procedure except for actual ligation of the bile duct (SHAM rats). Surgery was followed-up with pain control medication (carprofen s.c.). Approximately five weeks after surgery, ketamine/xylazine anesthetized rats were subjected to median laparotomy, after which one catheter was inserted through an ileocecal vein to the portal vein, and one catheter was inserted into the femoral artery. The catheters were connected to pressure recording equipment, for assessment of portal pressure and mean arterial pressure, respectively.
(§4) After catheterization and hemodynamic stabilization, rats were dosed with 5 mg/kg test conjugate or mock conjugate i.v. through the lateral tail vein and pressures were monitored continuously (example 13.1.). One hour after dosing, animals were sacrificed after which tissues were isolated for ex vivo analysis (example 13.2.).

IGF2R = target: T3, IGF2R (Rattus norvegicus, UniProt G3V824); experiment: In situ detection of infused conjugate in liver cryo-sections (in vivo targeting of IGF2R)
T3 construct: from tissue; host or cells: cryo-sections of liver and other tissues, and liver in vivo, of Sprague-Dawley BDL and SHAM rats
Description: as §4
After isolation, livers obtained from test conjugate-infused BDL and SHAM rats were fixated with paraformaldehyde, soaked in 30% (w/v) sucrose in PBS, and sectioned using cryo-microtome. To detect the test conjugate in situ, tissue sections were stained with a rabbit polyclonal anti-VHH antiserum recognizing the 13F11-13E8 moiety of the conjugate, followed by an anti-rabbit antibody conjugated to the fluorophore Alexa-488 for visualization by confocal fluorescence microscopy (cf. example 12). […] Further accumulation of the test conjugate in the BDL liver beyond this one-hour time point was likely to have occurred.

hIGF2R-ECD = target: T4, hIGF2R-ECD (Homo sapiens, UniProt P11717); experiment: Binding assay / titration ELISA on recombinant hIGF2R-ECD; settings: KD+SEM, n=2, read-out: calculated affinity (KD)
T4 construct: recombinant human extracellular domain of IGF2R (hIGF2R-ECD)
Description: The 15 unique hIGF2R binders (Example 1.1, FIG. 2) were produced and purified as described in examples 2 and 3. The apparent affinities were determined with binding assays on hIGF2R-ECD. Briefly, three-fold serial VHH dilutions, starting from 1 μM, were added onto hIGF2R-ECD coated plates. After 2 hours of incubation, plates were washed and bound VHH was detected using a VHH-specific IgG antibody, followed by an IRD800CW-conjugated IgG-specific antibody. […] VHH 13F11 was also produced with a C-terminal free cysteine and conjugated using maleimide chemistry to Alexa Fluor 647 (13F11-A647 in FIG. 8A, conjugation method as described in example 9.2). A titration ELISA (direct read out at 647 nm) with this construct was carried out on hIGF2R-ECD to determine whether the affinity was affected after site directed conjugation (FIG. 8B). The KD and Bmax were calculated in Graphpad (version 8.3), using one-site specific binding analysis (FIG. 8C).
Based on their high affinity and binding to non-overlapping receptor epitopes, VHHs 13F11 and 13E8 were selected for the design of biparatopic and bivalent VHH constructs. Two VHHs were fused with a flexible linker, consisting of three Gly-Gly-Gly-Gly-Ser repeats (FIG. 8A). The sequences were codon optimized for expression in E. coli and obtained as synthesized DNA fragments from GeneArt. The DNA fragments encoding VHHs were cloned into a vector pET28-based vector introducing a C-terminal free cysteine for site-directed conjugation and His6 tag for IMAC purification (FIG. 8A). The constructs were produced and purified as described in example 3. The constructs were conjugated to Alexa Fluor 647 (conjugation method as described in example 9.2) and titration ELISAs on recombinant hIGF2R-ECD (as described in example 4.1) were performed to determine the KD and Bmax (calculated in Graphpad (version 8.3), using one-site specific binding analysis) (FIG. 8C).
Next, 13F11-13E8 was genetically re-engineered to include an in vivo half-life extender in the form of an albumin binding domain (ABD) as described by Johansson et al (Structure, specificity, and mode of interaction for bacterial albumin-binding modules, J. Biol. Chem. 2002 (277): 8114-8120) and subsequently produced and purified as described in Example 3. Subsequently, 13F11-13E8-ABD was conjugated to IRDye800CW (F11E8-ABD-IRD800, conjugation method as described in example 9.2) and the binding affinities of the biparatopic VHH as well as the ABD unit was determined. […] The binding affinity (KD) of F11-E8-ABD-IRD800 to rat serum albumin (RSA) was 30 nM and to mouse serum albumin (MSA) and human serum albumin (HSA) the binding affinity was approximately 200 nM.

[3] = test system: mock transfected NIH 3T3 2.2 cells; experiment: Internalization in mock transfected NIH 3T3 2.2 cells; assay type: cell-based; settings: 25 nM VHH conjugated to Alexa Fluor 647
Description: (§5) To assess if monovalent 13F11 and biparatopic 13F11-13E8 are internalized in the hIGF2R expressing cells, A549 cells (FIG. 16A) and NIH 3T3 2.2 cells transiently transfected with hIGF2R (FIG. 16B) were incubated with 25 nM VHH conjugated to Alexa Fluor 647 (conjugation method as described in example 9.2). A Mouse anti-IGF2R mAb was included to detect IGF2R expression on the hIGF2R transfected cells NIH 3T3 2.2 (FIG. 16B, right column), the mAb was detected with a goat anti-mouse mAb conjugated to Alexa Fluor 555. Additionally, mock transfected NIH 3T3 2.2 cells were incubated with 13F11 and 13F11-13E8 (FIG. 16C). […]
(§6) (FIG. 10D). […] The rate of internalization (endocytic rate constant, ke) of biparatopic constructs 13F11-13E8 and 13E8-13F11 was determined with a kinetic internalization assay on SCC-VII cells transfected with hIGF2R and rIGF2R. […] Subsequently, cells were washed with cold PBS and the non-internalized VHH construct (bound fraction) was separated from the internalized construct (internalized fraction) using an acid-wash, as described above, after which the fluorescence of both fractions were measured. […] Internalization was also observed in rIGF2R expressing SCC cells as a clear increase in fluorescence over time can be shown in FIG. 17 (ke around 0.7 min-1).

[4] = test system: A549 cells (IGF2R positive); experiment: Internalization in A549 cells (acid wash, confocal); assay type: cell-based, human; settings: 25 nM VHH conjugated to Alexa Fluor 647
Description: as §5, §6

[5] = test system: NIH 3T3 2.2 cells transiently transfected with hIGF2R; experiment: Internalization in NIH 3T3 2.2 cells transiently transfected with hIGF2R; assay type: cell-based, human; settings: 25 nM VHH conjugated to Alexa Fluor 647
Description: as §5, §6

[6] = one hour after 5 mg/kg i.v., anti-VHH staining

T3 sequence (G3V824 36-2481): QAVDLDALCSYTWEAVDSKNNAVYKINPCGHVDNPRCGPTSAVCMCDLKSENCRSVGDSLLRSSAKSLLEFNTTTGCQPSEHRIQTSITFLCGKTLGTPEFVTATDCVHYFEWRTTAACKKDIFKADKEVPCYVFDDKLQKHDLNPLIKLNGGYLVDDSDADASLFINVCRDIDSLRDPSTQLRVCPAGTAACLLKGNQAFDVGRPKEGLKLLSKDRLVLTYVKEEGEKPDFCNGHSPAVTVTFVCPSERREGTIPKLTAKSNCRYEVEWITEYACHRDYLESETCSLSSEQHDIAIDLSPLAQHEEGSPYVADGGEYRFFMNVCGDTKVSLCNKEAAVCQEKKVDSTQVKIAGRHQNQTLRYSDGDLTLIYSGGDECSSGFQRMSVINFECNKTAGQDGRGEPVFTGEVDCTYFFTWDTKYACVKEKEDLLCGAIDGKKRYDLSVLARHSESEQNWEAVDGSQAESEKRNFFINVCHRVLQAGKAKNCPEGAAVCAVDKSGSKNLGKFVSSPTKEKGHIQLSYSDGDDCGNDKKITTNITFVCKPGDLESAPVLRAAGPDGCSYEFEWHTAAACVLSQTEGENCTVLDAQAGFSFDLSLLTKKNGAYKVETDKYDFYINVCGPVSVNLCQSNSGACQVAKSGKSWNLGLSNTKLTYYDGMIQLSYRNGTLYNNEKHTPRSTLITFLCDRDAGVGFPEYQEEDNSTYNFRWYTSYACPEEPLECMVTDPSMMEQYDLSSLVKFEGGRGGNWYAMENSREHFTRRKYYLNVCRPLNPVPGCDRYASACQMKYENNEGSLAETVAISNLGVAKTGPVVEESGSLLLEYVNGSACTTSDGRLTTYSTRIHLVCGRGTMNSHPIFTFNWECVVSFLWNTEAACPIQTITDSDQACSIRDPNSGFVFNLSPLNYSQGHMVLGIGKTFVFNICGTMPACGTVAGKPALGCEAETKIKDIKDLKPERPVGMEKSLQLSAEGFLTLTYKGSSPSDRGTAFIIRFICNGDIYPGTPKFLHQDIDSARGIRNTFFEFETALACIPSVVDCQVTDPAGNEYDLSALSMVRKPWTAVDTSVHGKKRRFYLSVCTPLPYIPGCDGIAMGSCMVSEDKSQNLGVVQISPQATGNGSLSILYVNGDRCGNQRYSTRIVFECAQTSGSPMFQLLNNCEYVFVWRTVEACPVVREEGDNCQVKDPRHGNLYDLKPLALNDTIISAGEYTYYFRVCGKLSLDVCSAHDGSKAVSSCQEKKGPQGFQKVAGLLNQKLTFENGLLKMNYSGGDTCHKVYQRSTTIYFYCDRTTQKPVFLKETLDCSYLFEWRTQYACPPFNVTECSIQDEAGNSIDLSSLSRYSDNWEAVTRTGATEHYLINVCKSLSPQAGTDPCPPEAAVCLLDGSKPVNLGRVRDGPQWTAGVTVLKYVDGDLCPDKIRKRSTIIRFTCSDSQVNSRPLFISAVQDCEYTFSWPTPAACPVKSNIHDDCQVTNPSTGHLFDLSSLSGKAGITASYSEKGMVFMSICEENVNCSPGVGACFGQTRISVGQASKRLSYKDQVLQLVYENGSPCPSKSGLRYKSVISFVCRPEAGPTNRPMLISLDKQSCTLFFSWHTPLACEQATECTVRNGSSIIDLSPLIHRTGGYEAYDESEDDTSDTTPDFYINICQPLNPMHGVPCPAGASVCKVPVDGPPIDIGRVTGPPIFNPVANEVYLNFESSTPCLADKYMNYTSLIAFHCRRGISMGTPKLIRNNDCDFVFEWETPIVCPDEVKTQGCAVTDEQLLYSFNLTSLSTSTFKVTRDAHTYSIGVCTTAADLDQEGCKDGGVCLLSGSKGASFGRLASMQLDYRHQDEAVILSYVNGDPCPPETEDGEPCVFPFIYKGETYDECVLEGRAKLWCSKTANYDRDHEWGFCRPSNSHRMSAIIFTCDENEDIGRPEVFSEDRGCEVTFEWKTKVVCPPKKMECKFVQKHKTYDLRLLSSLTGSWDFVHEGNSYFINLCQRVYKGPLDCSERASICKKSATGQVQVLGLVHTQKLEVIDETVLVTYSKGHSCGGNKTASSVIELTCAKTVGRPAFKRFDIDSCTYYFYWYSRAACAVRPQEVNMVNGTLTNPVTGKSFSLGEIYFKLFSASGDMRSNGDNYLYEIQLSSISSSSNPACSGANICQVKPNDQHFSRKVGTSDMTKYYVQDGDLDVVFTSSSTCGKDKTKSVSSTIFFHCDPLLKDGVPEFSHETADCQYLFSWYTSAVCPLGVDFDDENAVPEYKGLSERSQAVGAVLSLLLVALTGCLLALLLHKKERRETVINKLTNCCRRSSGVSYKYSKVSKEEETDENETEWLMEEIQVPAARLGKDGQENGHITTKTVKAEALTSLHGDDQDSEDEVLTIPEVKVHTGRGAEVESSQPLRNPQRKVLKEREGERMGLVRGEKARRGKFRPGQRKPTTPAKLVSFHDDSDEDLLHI
T2 sequence (P09619 33-532): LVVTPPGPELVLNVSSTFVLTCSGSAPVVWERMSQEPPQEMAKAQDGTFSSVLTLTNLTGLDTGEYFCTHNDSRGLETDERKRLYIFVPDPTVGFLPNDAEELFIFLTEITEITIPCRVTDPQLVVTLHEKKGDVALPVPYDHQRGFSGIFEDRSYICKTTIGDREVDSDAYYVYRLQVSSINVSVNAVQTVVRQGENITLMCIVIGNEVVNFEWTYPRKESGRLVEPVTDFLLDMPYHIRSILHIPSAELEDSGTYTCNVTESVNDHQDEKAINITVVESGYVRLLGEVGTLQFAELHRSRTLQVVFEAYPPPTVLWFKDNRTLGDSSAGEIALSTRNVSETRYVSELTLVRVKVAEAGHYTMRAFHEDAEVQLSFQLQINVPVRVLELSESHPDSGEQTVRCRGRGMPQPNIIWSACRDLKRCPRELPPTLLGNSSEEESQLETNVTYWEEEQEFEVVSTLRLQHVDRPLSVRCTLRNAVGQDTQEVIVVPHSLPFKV

B1: SP26P: rPDGFRB binding VHH, SEQ ID NO: 153 (protein, listed as Lama glama)
VHH: EVQLVESGGGLVQAGGSLRLSCAASGRSFSSSVMGWFRQTPGKEREFVAATRWTAASTHYADSVKGRFTISRDHAENAVFLQMNSLKPEDTAVYYCAAGNYLDTAQYRYNYWGQGTQVTVSS
- Kd (rat PDGFRB receptor): 0.3 nM
- binding epitope competition between SPO2P and SP26P (PDGFRB ECD): No competition
- Kd [1]: 5.1 nM

B2: test conjugate: 13F11-13E8-ABD conjugated to a Y27632-maleimide modified functional moiety (1e) (conjugate)
chain: EVQLVESGGRLVQPGDSLRLSCAASGRTFSDNAMGWFRQAPGKERRFVAGISWAGGSTYYSDSVKGRFTISRDNAKNTVYLQMNSLKPEDTAVYYCAAGLRAWVQRMPKDYNYWGQGTQVTVSSGGGGSGGGGSGGGGSEVQLVESGGGLVQAGGSLRLSCAASRSISPMGWYRQAPGKQRELVAIMPSSGPPIYADSVQGRFTISRDNAKNTVYLQMNSLKPEDTAVYYCNVGGGYWGQGTQVTVSS
modifications: non-natural residues; left off: large carriers; small tags and cut ends
- mean arterial pressure (MAP) ([2]; BDL rats, one hour): remained constant
- portal pressure (PP) ([2]; BDL rats, one hour): gradual decrease of portal pressure
- portal or arterial pressure ([2]; SHAM rats): neither the test conjugate nor the mock conjugate affected portal or arterial pressure
- distribution of conjugate versus tissue distribution of IGF2R (IGF2R; liver of BDL rats): overlapped with the (tissue) distribution of IGF2R; also recorded: displays co-localization with IGF2R
- detection of conjugate in liver of BDL rats (IGF2R; [6]): clearly detected
- detection of conjugate in liver of SHAM rats (IGF2R; [6]): not in the healthy liver of SHAM rats

B3: 13F11: VHH targeting IGF2R, SEQ ID NO: 273 (protein, listed as Lama glama)
VHH: EVQLVESGGRLVQPGDSLRLSCAASGRTFSDNAMGWFRQAPGKERRFVAGISWAGGSTYYSDSVKGRFTISRDNAKNTVYLQMNSLKPEDTAVYYCAAGLRAWVQRMPKDYNYWGQGTQVTVSS
- Kd (hIGF2R-ECD; construct conjugated to Alexa Fluor 647, direct read out): 1 ± 0.61 nM
- Kd (hIGF2R-ECD; unconjugated VHH, one-site specific binding): 0.23 ± 0.05 nM
- internalization in mock transfected NIH 3T3 2.2 cells [3]: did not internalize
- internalization in A549 cells [4]: no internalization was observed
- internalization in hIGF2R transfected NIH 3T3 2.2 cells [5]: did internalise
